The text below walks through data of IntAct's records for PubMed 30591568.

The labels stand for the following.
B1: CD226 antigen (Mus musculus), Q8K4F0 (parent)
chain: MAYVTWLLAILHVHKALCEETLWDTTVRLSETMTLECVYPLTHNLTQVEWTKNTGTKTVSIAVYNPNHNMHIESNYLHRVHFLNSTVGFRNMSLSFYNASEADIGIYSCLFHAFPNGPWEKKIKVVWSDSFEIAAPSDSYLSAEPGQDVTLTCQLPRTWPVQQVIWEKVQPHQVDILASCNLSQETRYTSKYLRQTRSNCSQGSMKSILIIPNAMAADSGLYRCRSEAITGKNKSFVIRLIITDGGTNKHFILPIVGGLVSLLLVILIIIIFILYNRKRRRQVRIPLKEPRDKQSKVATNCRSPTSPIQSTDDEKEDIYVNYPTFSRRPKPRL
partner: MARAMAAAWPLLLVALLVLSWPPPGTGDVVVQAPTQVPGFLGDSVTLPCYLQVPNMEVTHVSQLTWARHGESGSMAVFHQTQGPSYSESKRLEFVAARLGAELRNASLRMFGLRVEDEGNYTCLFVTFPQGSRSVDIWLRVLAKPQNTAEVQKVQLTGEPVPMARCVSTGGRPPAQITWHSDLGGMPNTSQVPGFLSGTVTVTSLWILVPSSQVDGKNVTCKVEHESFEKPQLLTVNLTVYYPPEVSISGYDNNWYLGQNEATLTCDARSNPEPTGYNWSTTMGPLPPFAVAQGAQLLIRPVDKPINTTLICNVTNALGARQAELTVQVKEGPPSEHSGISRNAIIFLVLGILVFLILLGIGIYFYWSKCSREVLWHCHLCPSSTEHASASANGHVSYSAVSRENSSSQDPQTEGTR
B2: Poliovirus receptor (Homo sapiens), P15151 (parent)
chain: B1 partner
partner: B1 chain
B3: Poliovirus receptor (Homo sapiens), P15151 (parent)
chain: B1 partner
partner: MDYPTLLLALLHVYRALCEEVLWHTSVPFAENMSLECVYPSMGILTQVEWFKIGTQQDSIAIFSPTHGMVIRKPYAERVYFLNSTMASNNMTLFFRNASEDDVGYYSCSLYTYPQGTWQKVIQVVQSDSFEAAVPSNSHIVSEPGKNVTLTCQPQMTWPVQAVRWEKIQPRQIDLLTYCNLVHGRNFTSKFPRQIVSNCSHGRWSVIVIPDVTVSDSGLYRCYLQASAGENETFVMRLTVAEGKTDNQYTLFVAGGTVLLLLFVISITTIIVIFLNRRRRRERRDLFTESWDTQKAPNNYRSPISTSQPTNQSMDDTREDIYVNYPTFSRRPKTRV

The variants in one assay derive from B1. Particulars: with pvr_human PVR, P15151.
Regarding MAYVTWLLAILHVHKALCEETLWDTTVRLSETMTLECVYPLTHNLTRVRWTKNTGTKTVSIAVYNPNSNMHIESNYLHRVHFLNSTVGFRNMSLSFYNASEADIGIYSCLFHARPNGPWEKKIKVVWSDSFEIAAPSDSYLSAEPGQDVTLTCQLPRTWPVQQVIWEKVQPHQVDILASCNLSQETRYTSKYLRQTRSNCSQGSMKSILIIPNAMAADSGLYRCRSEAITGKNKSFVIRLIITDGGTNKHFILPIVGGLVSLLLVILIIIIFILYNRKRRRQVRIPLKEPRDKQSKVATNCRSPTSPIQSTDDEKEDIYVNYPTFSRRPKPRL [Q47R;E49R;H68S;F114R], the “effect of a mutation on the interaction” value is “disrupting interaction strength”.
Consider MAYVTWLLAILHVHKALCEETLWDTTVRLSETMTLECVYPLTHNLTQVEWTKNTGTKTVSIAVYNPNANMHIESNYLHRVHFLNSTVGFRNMSLSFYNASEADIGIYSCLFHAFPNGPWEKKIKVVWSDSFEIAAPSDSYLSAEPGQDVTLTCQLPRTWPVQQVIWEKVQPHQVDILASCNLSQETRYTSKYLRQTRSNCSQGSMKSILIIPNAMAADSGLYRCRSEAITGKNKSFVIRLIITDGGTNKHFILPIVGGLVSLLLVILIIIIFILYNRKRRRQVRIPLKEPRDKQSKVATNCRSPTSPIQSTDDEKEDIYVNYPTFSRRPKPRL [H68A], for which the “effect of a mutation on the interaction” value was “decreasing interaction strength”.
In the case of MAYVTWLLAILHVHKALCEETLWDTTVRLSETMTLECVYPLTHNLTQVEWTKNTGTKTVSIAVYNPNHNMHIESNYLHRVHFLNSTVGFRNMSLSFYNASEADIGIYSCLFHAAPNGPWEKKIKVVWSDSFEIAAPSDSYLSAEPGQDVTLTCQLPRTWPVQQVIWEKVQPHQVDILASCNLSQETRYTSKYLRQTRSNCSQGSMKSILIIPNAMAADSGLYRCRSEAITGKNKSFVIRLIITDGGTNKHFILPIVGGLVSLLLVILIIIIFILYNRKRRRQVRIPLKEPRDKQSKVATNCRSPTSPIQSTDDEKEDIYVNYPTFSRRPKPRL [F114A], the “effect of a mutation on the interaction” value was “disrupting interaction strength”.
On the same count and under the same terms, then MAYVTWLLAILHVHKALCEETLWDTTVRLSETMTLECVYPLTHNLTAVEWTKNTGTKTVSIAVYNPNHNMHIESNYLHRVHFLNSTVGFRNMSLSFYNASEADIGIYSCLFHAFPNGPWEKKIKVVWSDSFEIAAPSDSYLSAEPGQDVTLTCQLPRTWPVQQVIWEKVQPHQVDILASCNLSQETRYTSKYLRQTRSNCSQGSMKSILIIPNAMAADSGLYRCRSEAITGKNKSFVIRLIITDGGTNKHFILPIVGGLVSLLLVILIIIIFILYNRKRRRQVRIPLKEPRDKQSKVATNCRSPTSPIQSTDDEKEDIYVNYPTFSRRPKPRL [Q47A], with “disrupting interaction strength”.

Variants of B2 are the subject of a further assay. Particulars: with cd226_mouse Cd226, Q8K4F0.
With MARAMAAAWPLLLVALLVLSWPPPGTGDVVVQAPTQVPGFLGDSVTLPCYLQVPNMEVTHVSRLTWARHGESGSMAVFHQTQGPSYSESKRLEFVAARLGAELRNASLRMFGLRVEDEGNYTCLFVTRPQGSRSVDIWLRVLAKPQNTAEVQKVQLTGEPVPMARCVSTGGRPPAQITWHSDLGGMPNTSQVPGFLSGTVTVTSLWILVPSSQVDGKNVTCKVEHESFEKPQLLTVNLTVYYPPEVSISGYDNNWYLGQNEATLTCDARSNPEPTGYNWSTTMGPLPPFAVAQGAQLLIRPVDKPINTTLICNVTNALGARQAELTVQVKEGPPSEHSGISRNAIIFLVLGILVFLILLGIGIYFYWSKCSREVLWHCHLCPSSTEHASASANGHVSYSAVSRENSSSQDPQTEGTR [Q63R;F128R], the “effect of a mutation on the interaction” value is reported as “disrupting interaction strength”.

A further assay covers variants of B3. Particulars: with cd226_human CD226, Q15762.
MARAMAAAWPLLLVALLVLSWPPPGTGDVVVQAPTQVPGFLGDSVTLPCYLQVPNMEVTHVSRLTWARHGESGSMAVFHQTQGPSYSESKRLEFVAARLGAELRNASLRMFGLRVEDEGNYTCLFVTRPQGSRSVDIWLRVLAKPQNTAEVQKVQLTGEPVPMARCVSTGGRPPAQITWHSDLGGMPNTSQVPGFLSGTVTVTSLWILVPSSQVDGKNVTCKVEHESFEKPQLLTVNLTVYYPPEVSISGYDNNWYLGQNEATLTCDARSNPEPTGYNWSTTMGPLPPFAVAQGAQLLIRPVDKPINTTLICNVTNALGARQAELTVQVKEGPPSEHSGISRNAIIFLVLGILVFLILLGIGIYFYWSKCSREVLWHCHLCPSSTEHASASANGHVSYSAVSRENSSSQDPQTEGTR [Q63R;F128R]: the “effect of a mutation on the interaction” value is on record as “disrupting interaction strength”.
